The values that follow come from PMC8034850, “A cell-based screening method using an intracellular antibody for discovering small molecules targeting the translocation protein LMO2” (Science Advances, 2021).

Assay type in all cases: cell-based
Assay [1] has as its target T1, LMO2-iDAb LMO2dm3 interaction (Homo sapiens, UniProt P25791).
T1 construct: LMO2 cDNA was cloned into the pEF-RLuc8-MCS and pEF-MCS-RLuc8 plasmids; expressed in transfected cells; host or cells: HEK293T
T1 sequence (P25791 1-158): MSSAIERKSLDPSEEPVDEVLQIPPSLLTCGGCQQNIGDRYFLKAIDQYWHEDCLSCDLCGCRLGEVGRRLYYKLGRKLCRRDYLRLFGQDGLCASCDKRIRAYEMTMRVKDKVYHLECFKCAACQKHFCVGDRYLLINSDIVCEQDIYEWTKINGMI
The assay is described as follows: BRET competition / dose-response assay on LMO2-iDAb LMO2dm3. The settings on record: HEK-293T, HEK293T, Fig. 4C. On the procedure: (§1) For all BRET experiments (titration curves and competition assays), 650,000 HEK293T were seeded in each well of six-well plates. After 24 hours at 37°C, cells were transfected with a total of 1.6 μg of DNA mix, containing the donor + acceptor ± competitor plasmids, using Lipofectamine 2000 transfection reagent (Thermo Fisher Scientific). For the BRET donor saturation assays, cells were transfected with 0.05 μg of donor (LMO2) and with an increased amount of acceptor plasmid (0.025, 0.05, 0.1, 0.25, 0.5, 0.75, and/or 1 μg of DNA) equalized to a total amount of 1.6 μg of DNA with an empty vector pEF-cyto-myc. […] Cells were detached 24 hours later, washed with phosphate-buffered saline (PBS), and seeded in a white 96-well plate (clear bottom, PerkinElmer, catalog no. 6005181) in Opti-MEM without phenol red medium complemented with 4% FBS, and cells were incubated for an additional 20 to 24 hours at 37°C before the BRET assay reading. […]
(§2) BRET2 signal was determined immediately after injection of coelenterazine 400a substrate (10 μM final concentration) to cells (Cayman Chemicals) using a CLARIOstar instrument (BMG Labtech) with a luminescence module. Total GFP^2 fluorescence was detected with excitation and emission peaks set at 405 and 515 nm, respectively. Total RLuc8 luminescence was measured with the luminescence 400- to 700-nm wavelength filter. […]

Assay [2] has as its target T2, LMO2-TAL1 + E47 interaction (Homo sapiens, UniProt P25791).
T2 construct: LMO2 cDNA was cloned into the pEF-RLuc8-MCS and pEF-MCS-RLuc8 plasmids; expressed in transfected cells; host or cells: HEK293T
T2 sequence (P25791 1-158): T1 sequence (P25791 1-158)
The assay is described as follows: BRET assay on LMO2-TAL1 + E47. The conditions noted are these: BRET competition, fig. S7D. On the procedure:
as §1, §2

A further assay deals with T3, LMO2-LDB1 interaction (Homo sapiens, UniProt P25791).
T3 construct: LMO2 cDNA was cloned into the pEF-RLuc8-MCS and pEF-MCS-RLuc8 plasmids; expressed in transfected cells; host or cells: HEK293T
T3 sequence (P25791 1-158): T1 sequence (P25791 1-158)
Description: BRET assay on LMO2-LDB1. The settings on record: BRET competition, fig. S7E. The protocol: as §1, §2

For the next assay, the target named is T4, LMO2 (Homo sapiens, UniProt P25791).
T4 construct: LMO2 cDNA was cloned into the pEF-RLuc8-MCS and pEF-MCS-RLuc8 plasmids; expressed in transfected cells; host or cells: HEK293T
T4 sequence (P25791 1-158): T1 sequence (P25791 1-158)
The assay is described as follows: Single-dose BRET competition of LMO2-RLuc8 and GFP2-iDAb LMO2dmx by unmutated iDAb LMO2. The settings on record: lowest dose of competitor 0.1 μg, label = GFP2-iDAb acceptor, Fig. 2D.

Substitutions are numbered along the chain they refer to. In names and notes the source's numbering stands.

As for `COc1ccc(CN2CCN(c3nc(C(=O)Nc4ccc(-n5cccc5)cc4)co3)CC2)cc1` [Abd-L19], in assay [1], at 20 µM the inhibition was 45%.

B1: iDAb LMO2: intracellular VH single domain antibody binding to LMO2 (antibody, V domains shown)
VH: EVQLLESGGGLVQPGGSLRLSCAASGFSFSHSPMNWVRQAPGKGLEWVSYISYNSSSIYYADSVKGRFTISRDNSKNTLYLQMNSLRAEDTAVYYCARGLTESLELTADWFDYWGQGTLVTVSS
For B1, in assay [2], the “effect of coexpressed nontagged iDAb on LMO2-TAL1 + E47 BRET signal” value is listed as “inhibited BRET signal”. Moreover, the “effect of coexpressed nontagged iDAb on LMO2-LDB1 BRET signal” value with LMO2-LDB1 interaction was “inhibited BRET signal”.

B2: iDAb LMO2dm3: iDAb LMO2 mutant S28G, H31G, S55A, E102A, T107A, chosen for the screen (antibody, V domains shown)
VH: B1 VH with S28G, H31G, S55A, E102A, T107A
B2: the “percentage inhibition by iDAb LMO2 compared to iDAb Ctl of the interaction of the labelled acceptor iDAb with LMO2” value in the assay with LMO2 is on record as ~ 90%.
